Where a chain is given by its changes, count along the chain named. In names and notes the source's numbering stands.
Key:
human CD28 [1] = target: human CD28 (human, UniProt P10747); assay: flow cytometry, Jurkat cells (CD28); MFI over CD80 WT IgV-Fc
human PD-L1 = human PD-L1 (human, UniProt Q9NZQ7); assay: flow cytometry, CHO/PD-L1 cells; MFI over CD80 WT IgV-Fc
human CTLA-4 = human CTLA-4 (human, UniProt P16410); assay: flow cytometry, CHO/CTLA4 cells; MFI over CD80 WT IgV-Fc
human CD28 [2] = target: human CD28 (human, UniProt P10747); assay: cell-based or functional assay

B1: CD80 E35D/M47V/N48K/V68M/K89N IgV-Fc, delta linker (Fc fusion)
chain: VIHVTKEVKEVATLSCGHNVSVEELAQTRIYWQKDKKMVLTMMSGDVKIWPEYKNRTIFDITNNLSIMILALRPSDEGTYECVVLKYENDAFKREHLAEVTLSVKTHTCPPCPAPEAEGAPSVFLFPPKPKDTLMISRTPEVTCVVVDVSHEDPEVKFNWYVDGVEVHNAKTKPREEQYNSTYRVVSVLTVLHQDWLNGKEYKCKVSNKALPAPIEKTISKAKGQPREPQVYTLPPSREEMTKNQVSLTCLVKGFYPSDIAVEWESNGQPENNYKTTPPVLDSDGSFFLYSKLTVDKSRWQQGNVFSCSVMHEALHNHYTQKSLSLSPG
Q: With B1 as the binder, how does the “Fold change to WT CD80” value (human CD28 [1]) read?
A: 83.7 fold

Q: What about the “Fold change to WT CD80” value (human PD-L1) of the same binder?
A: 439 fold

Q: What about the “Fold change to WT CD80” value (human CTLA-4) of the same binder?
A: 2.6 fold

B2: CD80 E35D/D46V/M47L/V68M/L85Q/E88D IgV-Fc, delta linker (Fc fusion)
chain: B1 chain with D46V, V47L, K48N, L85Q, E88D, N89K
Q: Which results are given for B2?
A: Fold change to WT CD80 (human CD28 [1]): 74.7 fold; Fold change to WT CD80 (human PD-L1): 484 fold; Fold change to WT CD80 (human CTLA-4): 10.2 fold

B3: SIP 2: Variant CD80 IgV-GSG4S-Inert Fc (E35D, D46V, M47L, and V68M) (Fc fusion)
chain: VIHVTKEVKEVATLSCGHNVSVEELAQTRIYWQKDKKMVLTMMSGVLNIWPEYKNRTIFDITNNLSIMILALRPSDEGTYECVVLKYEKDAFKREHLAEVTLSVKADGSGGGGSEPKSSDKTHTCPPCPAPEAEGAPSVFLFPPKPKDTLMISRTPEVTCVVVDVSHEDPEVKFNWYVDGVEVHNAKTKPREEQYNSTYRVVSVLTVLHQDWLNGKEYKCKVSNKALPAPIEKTISKAKGQPREPQVYTLPPSRDELTKNQVSLTCLVKGFYPSDIAVEWESNGQPENNYKTTPPVLDSDGSFFLYSKLTVDKSRWQQGNVFSCSVMHEALHNHYTQKSLSLSPG
Q: Which results are given for B3?
A: CD28 costimulation EC50, Jurkat/IL-2 luciferase reporter; SIP 2 (Supernatant) from Donor 1 Pan T-cells (human CD28 [2]): 0.282 nM; CD28 costimulation EC50, Jurkat/IL-2 luciferase reporter; SIP 2 (Supernatant) from Donor 2 Pan T-cells (human CD28 [2]): 0.75 nM; CD28 costimulation EC50, Jurkat/IL-2 luciferase reporter; SIP 2 (Supernatant) from Jurkat cells (human CD28 [2]): 0.75 nM

B4: SIP 3: Variant CD80 IgV-GSG4S-Inert Fc (H18Y, E35D, M47V, V68M, and A71G) (Fc fusion)
chain: B3 chain with H18Y, V46D, L47V, A71G
Q: What does the source list for B4?
A: CD28 costimulation EC50, Jurkat/IL-2 luciferase reporter; SIP 3 (Supernatant) from Donor 1 Pan T-cells (human CD28 [2]): 0.294 nM; CD28 costimulation EC50, Jurkat/IL-2 luciferase reporter; SIP 3 (Supernatant) from Donor 2 Pan T-cells (human CD28 [2]): 0.961 nM; CD28 costimulation EC50, Jurkat/IL-2 luciferase reporter; SIP 3 (Supernatant) from Jurkat cells (human CD28 [2]): 0.961 nM

B5: SIP 4: Variant CD80 IgV-GSG4S-Inert Fc (H18Y, A26P, E35D, M47I, V68M, and A71G) (Fc fusion)
chain: B3 chain with H18Y, A26P, V46D, L47I, A71G
Q: With B5 as the binder, how does the “CD28 costimulation EC50, Jurkat/IL-2 luciferase reporter; SIP 4 (Supernatant) from Donor 1 Pan T-cells” value (human CD28 [2]) read?
A: 0.153 nM

Q: What about the “CD28 costimulation EC50, Jurkat/IL-2 luciferase reporter; SIP 4 (Supernatant) from Donor 2 Pan T-cells” value (human CD28 [2]) of the same binder?
A: 0.221 nM

Q: And the “CD28 costimulation EC50, Jurkat/IL-2 luciferase reporter; SIP 4 (Supernatant) from Jurkat cells” value (human CD28 [2])?
A: 0.221 nM

Reference: patent US20220177587A1 (Alpine Immune Sciences, Inc., published 2022)
